The record followed here is patent publication US20130302399A1 (published 2013).

For assay [1], the target named is T1, human Proprotein Convertase Subtilisin-like/Kexin type 9 (UniProt Q8NBP7 31-692). The assay can be described thus: ELISA. Background: In an ELISA, binding on a coated surface is turned into a signal by an enzyme label.
The target of assay [2] is T1, human Proprotein Convertase …. As to the kind of experiment: ELISA. This is another data set of the same source.
Target sequence in this assay (Q8NBP7 31-692): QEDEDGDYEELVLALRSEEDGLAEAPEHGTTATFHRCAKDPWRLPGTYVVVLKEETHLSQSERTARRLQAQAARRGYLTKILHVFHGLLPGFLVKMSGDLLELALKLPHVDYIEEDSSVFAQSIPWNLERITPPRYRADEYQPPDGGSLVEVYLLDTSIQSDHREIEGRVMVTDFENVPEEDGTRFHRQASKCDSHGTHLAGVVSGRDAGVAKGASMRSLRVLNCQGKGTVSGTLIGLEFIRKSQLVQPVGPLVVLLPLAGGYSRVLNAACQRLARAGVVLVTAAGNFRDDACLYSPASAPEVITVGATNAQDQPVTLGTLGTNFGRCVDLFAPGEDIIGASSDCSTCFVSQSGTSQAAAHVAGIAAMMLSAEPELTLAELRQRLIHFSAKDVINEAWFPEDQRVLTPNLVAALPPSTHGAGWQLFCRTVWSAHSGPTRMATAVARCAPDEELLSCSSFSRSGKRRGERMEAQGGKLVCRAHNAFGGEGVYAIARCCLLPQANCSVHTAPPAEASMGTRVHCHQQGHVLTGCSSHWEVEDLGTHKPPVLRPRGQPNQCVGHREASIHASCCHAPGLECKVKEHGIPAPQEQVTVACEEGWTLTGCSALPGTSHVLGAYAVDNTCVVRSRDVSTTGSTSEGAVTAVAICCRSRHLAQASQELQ
The target in assay [3] is T2, cynomolgus monkey PCSK9 (cynomolgus monkey, UniProt A0A7N9D9N8 150-747).
T2 chain: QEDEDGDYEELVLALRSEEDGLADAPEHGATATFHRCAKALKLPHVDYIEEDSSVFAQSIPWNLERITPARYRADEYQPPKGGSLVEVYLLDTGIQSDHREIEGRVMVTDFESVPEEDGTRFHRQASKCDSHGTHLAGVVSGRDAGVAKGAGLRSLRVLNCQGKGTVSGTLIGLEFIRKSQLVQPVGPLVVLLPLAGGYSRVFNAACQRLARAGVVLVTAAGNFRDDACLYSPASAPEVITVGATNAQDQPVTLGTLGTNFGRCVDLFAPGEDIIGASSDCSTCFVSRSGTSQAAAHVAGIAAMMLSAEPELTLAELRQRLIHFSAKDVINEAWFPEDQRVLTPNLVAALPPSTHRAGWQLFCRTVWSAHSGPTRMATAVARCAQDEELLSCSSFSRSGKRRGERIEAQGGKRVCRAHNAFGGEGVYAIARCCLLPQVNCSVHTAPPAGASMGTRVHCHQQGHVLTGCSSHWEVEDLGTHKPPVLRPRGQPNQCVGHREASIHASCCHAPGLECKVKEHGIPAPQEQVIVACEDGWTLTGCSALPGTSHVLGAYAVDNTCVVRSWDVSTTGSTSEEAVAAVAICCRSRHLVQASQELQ
As to the kind of experiment: ELISA.

Assay [4] deals with T1, human Proprotein Convertase …. As to the kind of experiment: ELISA. The source holds these as a separate data set.
The target is the same in assay [5]. As to the kind of experiment: ELISA. The source holds these as a separate data set.
Assay [6] has the same target. As to the kind of experiment: PCSK9-LDLR blocking ELISA.
The target in assay [7] is T2, cynomolgus monkey PCSK9. The assay can be described thus: ELISA.

Like-named read-outs stand apart in the source and are kept apart here.

B1: Ab13 (antibody, V domains shown)
VH: QSVEESGGRLVTPGTPLTLTCTVSGIDLSTYGVGWVRQAPGKGLEYIGIISSSGSTYYASWAKGRFTISKTSSTTVDLKMTSLTTEDTATYFCARDWSSTTGYYGYFNMWGPGTLVTVSS
VL: AFELTQTPSPVSAAVGGTVTIKCQASQSISTALAWYQQKPGQPPKLLIYGASNLESGVPSRFSGSGSGTQFTLTISDLECADAAIYYCQSSYGSSTLAFGGGTEVVVKR
As to B1, in assay [1], the concentration for a half-maximal effect (EC50) (in general, the concentration giving half of the maximal effect) was determined as 0.124 nM.

B2: Ab8 (antibody, V domains shown)
VH: QEQLVESGGGLVQPEGSLTLTCTASGFSFTSDYYMCWVRQAPGKGLEWIGCISTGDGSTYYASWAKGRFTISKPSSTTVTLQMTRLTAADTATYFCARDRYYSYAYGAYVYASDLWGPGTLVTVSS
VL: DIVMTQTPASVSEPVGGTVTINCQASESIRNYLSWYQQKPGQRPKLLIYGASTLASGVPSRFKGSGSGTDFTLTISDLECADAATYYCQSNYGISSRSYVNGFGGGTEVVVKR
Regarding B2, the EC50 is 0.0874 nM in assay [2] and 0.106 nM with cynomolgus monkey PCSK9 [3].

B3: Ab7 (antibody, V domains shown)
VH: EVQLVESGGGLVQPGGSLRLSCAASGFTVSSNYWICWVRQAPGKGLEWIGCIRDGGGTYYASSAKGRFTISRDNSKNTLYLQMNSLRAEDTAVYYCASDINDGWLGQFNLWGQGTLVTVSS
VL: DIVMTQSPSSLSASVGDRVTIKCQASQSISAYLAWYQQKPGKVPKLLIYRAYTLASGVPSRFSGSGSGTDFTLTISSLQPEDVATYYCQSYYSVTTNTYGNTFGGGTKVEIKR
Consider B3, for which the 50% effective concentration (EC50) was found to be 0.103 nM in the assay with cynomolgus monkey PCSK9 [3] and 0.104 nM in assay [1].

B4: Ab22 (antibody, V domains shown)
VH: EVQLVESGGGLVQPGGSLRLSCAASGFSLSSYAMNWVRQAPGKGLEWIGAIRSSGATFFASSVNGRFTISRDNSKNTVYLQMNSLRAEDTAVYYCARDTNDGWYINRLDLWGQGTLVTVSS
VL: AVLTQSPSTLSASVGDRVTITCQSSKSVYSNYLSWFQQKPGKAPKFLIYKASTLASGVPSRFSGSGSGTEFTLTISSLQPDDFATYYCAGGDTNIADNAFGGGTKVEIKR
Take B4: the 50% effective concentration (EC50) in assay [4] stood at 0.0492 nM.

B5: Ab24 (antibody, V domains shown)
VH: QSLEESGGDLVKPGASLTLTCKASGFSFSSGYYMCWVRQAPGKGLEWIACIYAGSGGSTFFANWAKGRFTISKTSSTTVTLQMTSLTAADTATYFCARDGGYAGYGYAFFNLWGPGTLVTVSS
VL: DVVMTQTPASVSEPVGGTVTIKCQASERIYSGLAWYQQKPGQPPKLLIYGASTLASGVPSRFKGSGSGTDFTLTISDLECDDAAIYYCQATYYGSSYPNVFGGGTEVVVKR
Turning to B5, in assay [5], the EC50 came to 0.178 nM.

B6: Ab23 (antibody, V domains shown)
VH: QSLEESGGDLVKPGASLTLTCKASGFSFSSGYYMCWVRQAPGKGLEWIACIYAGSGGSTFFANWAKGRFTISKTSSTTVTLQMTSLTAADTATYFCARDGGYAGYGYAFFNLWGPGTLVTVSS
VL: DVVMTQTPASVSEPVGGTVTIKCQASERIYSGLAWYQQKPGQPPKLLIYGASTLASGVPSRFKGSGSGTDFTLTISDLECDDAAIYYCQCTYYGSSYPNVFGGGTEVVVKR
As for B6, the IC50 (as a rule, the concentration that gives 50% inhibition) in assay [6] came out at 0.81 nM.

B7: Ab6 (antibody, V domains shown)
VH: QEQLEESGGDLVKPEGSLTLTCTASGFSFSSNYWICWVRQAPGKGLEWIGCIRDGGGTYYASWAKGRLTISMTSSTTVTLQLNSLTAADTATYFCASDINDGWLGQFNLWGPGTLVTVSS
VL: DIVMTQTPASVEVAVGGTVTIKCQASQSISAYLAWYQQKPGQPPKLLIYRAYTLASGVPSRFKGSGSGTQFTLTISDLECADAATYYCQSYYSVTTNTYGNTFGGGTEVVVKR
As for B7, the EC50 came out at 0.117 nM in assay [2] and 0.112 nM with cynomolgus monkey PCSK9 [3].

B8: Ab10 (antibody, V domains shown)
VH: QEQLEESGGDLVKPEGSLTLTCTASGFSFSSSYWICWVRQAPGKGLEWIACIRAGGGNYYANWAKGRFTISRTSSTTVTLQMTSLTAADTATYFCASDINDGWLGQFNLWGPGTLVTVSS
VL: NIVMTQTPASVEAAVGGTVTIKCQASQSISNYLAWYQQKPGQPPKLLIYRTSTLASGVPSRFKGSGSGTQFTLTISDLECADAATYYCQSYYSVTTVAYGNTFGGGTEVVVKR
With B8, the EC50 in assay [1] stood at 0.126 nM.

B9: Ab9 (antibody, V domains shown)
VH: QSVEESGGRLVTPGTPLTLTCTVSGIDLSSYAMGWVRQAPGKGLEYIGIIVSYGPTYYASWAKGRFTISKTSTTVDLKITSPTAEDTATYFCARDLDANSSGYYGCFNIWGQGTLVTVSS
VL: AVVLTQTPASVSAAVGGTVTIKCQASQSISTALAWYQQKPGQPPKLLIYAASPLASGVSSRFKSSGSGTEFTLTISDLECADAATYYCQSYYGSSNIAFGGGTELEILR
Consider B9, for which a half-maximal effect in assay [2] (EC50) was put at 0.098 nM.

B10: Ab15 (antibody, V domains shown)
VH: QEQLEESGGDLVKPEGSLTLTCTASGFSFSSSYWICWVRQAPGKGLEWIACIDAGNSGSTYYASWAKGRFTISKASSTTVTLQMTSLTAADTATYFCASDLNDGWLGQFNLWGPGTLVTVSS
VL: NIVMTQTPSPVSGAVGGTVTIKCQASQSISDYLAWYQQKPGQPPKLLIYRASTLASGVPSRFRGSGSGTEYTLTITDLECADAATYYCQSYYSVTTNTYGNTFGGGTEVVVKR
Molecule B10 had an EC50 in the assay with cynomolgus monkey PCSK9 [7] of 0.161 nM.

B11: Ab5 (antibody, V domains shown)
VH: QSVEESGGRLVTPGTPLTLTCTVSGFSLSSYAMSWVRQAPGKGLEWIGIISNSGTTYYASWAKGRFTISKTSTTVDLKITSPTTEDTATYFCARGIYWYWRVFNLWGPGTLVTVSS
VL: AVLTQTPSPVSAAVGGTVTINCQASQSVYNNLLSWYQQKPGQPPKLLIYDASNLASGVPDRFSGSGSGTQFTLTISGVQCDDAATYYCLGGYDDDADNAFGGGTEVVVKR
Take B11: the results for the 50% effective concentration (EC50) (in assay [2]; with cynomolgus monkey PCSK9 [3]) were 0.116 nM and 0.169 nM, respectively.
